This is an account of results in US9062100B2, “Anti-human TROP-2 antibody having anti-tumor activity in vivo” (LIVTECH, INC., dated 2015).

Where no end group is shown, it is not given here.

The target of test [1] is T1, human TROP-2 (hTROP-2) (human).
T1 chain: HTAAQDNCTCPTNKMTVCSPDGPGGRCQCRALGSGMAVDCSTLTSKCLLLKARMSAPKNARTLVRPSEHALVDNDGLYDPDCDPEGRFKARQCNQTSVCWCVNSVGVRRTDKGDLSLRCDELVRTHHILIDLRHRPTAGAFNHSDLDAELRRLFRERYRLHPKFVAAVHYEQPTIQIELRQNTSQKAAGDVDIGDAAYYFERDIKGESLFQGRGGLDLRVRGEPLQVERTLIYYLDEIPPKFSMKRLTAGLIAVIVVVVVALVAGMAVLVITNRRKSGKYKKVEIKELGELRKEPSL
The test can be described thus: FACS on PK-59 cells.

Test [2] has as its target T1, human TROP-2 (hTROP-2). The test is described as follows: FACS on BxPC-3 cells.
A further test concerns the target T2, Table 8 peptide No. 1 (human, not fully specified).
T2 peptide: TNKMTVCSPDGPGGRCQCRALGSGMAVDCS
The test is described as follows: PEPSCAN CLIPS peptide ELISA. (In general: ELISA stands for enzyme-linked immunosorbent assay.)

In another test the target is T3, Table 8 peptide No. 2 (human, not fully specified).
T3 peptide: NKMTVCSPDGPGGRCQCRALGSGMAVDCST
The test is described as follows: PEPSCAN CLIPS peptide ELISA.

A further test deals with T4, Table 8 peptide No. 3 (human, not fully specified).
T4 peptide: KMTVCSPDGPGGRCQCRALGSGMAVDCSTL
The test is described as follows: PEPSCAN CLIPS peptide ELISA.

The next test deals with T5, Table 8 peptide No. 4 (human, not fully specified).
T5 peptide: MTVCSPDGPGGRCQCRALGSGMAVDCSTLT
The test is described as follows: PEPSCAN CLIPS peptide ELISA.

The next test concerns the target T6, Table 8 peptide No. 5 (human, not fully specified).
T6 peptide: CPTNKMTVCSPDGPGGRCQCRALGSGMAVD
The test is described as follows: PEPSCAN CLIPS peptide ELISA.

In another test the target is T7, Table 8 peptide No. 6 (human, not fully specified).
T7 peptide: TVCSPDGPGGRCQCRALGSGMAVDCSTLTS
The test can be described thus: PEPSCAN CLIPS peptide ELISA.

In the next test the target is T8, Table 8 peptide No. 7 (human, not fully specified).
T8 peptide: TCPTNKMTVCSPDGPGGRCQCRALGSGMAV
The test can be described thus: PEPSCAN CLIPS peptide ELISA.

A further test concerns the target T9, Table 8 peptide No. 8 (human, not fully specified).
T9 peptide: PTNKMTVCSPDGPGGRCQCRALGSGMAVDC
The test can be described thus: PEPSCAN CLIPS peptide ELISA.

For another test, the target named is T10, Table 8 peptide No. 9 (human, not fully specified).
T10 peptide: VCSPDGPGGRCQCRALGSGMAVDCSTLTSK
The test is described as follows: PEPSCAN CLIPS peptide ELISA.

For another test, the target named is T11, Table 8 peptide No. 10 (human, not fully specified).
T11 peptide: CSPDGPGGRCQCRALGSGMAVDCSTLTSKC
The test can be described thus: PEPSCAN CLIPS peptide ELISA.

For the next test, the target named is T12, Table 8 peptide No. 13 (human, not fully specified).
T12 peptide: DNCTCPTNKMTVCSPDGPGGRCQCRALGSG
The test can be described thus: PEPSCAN CLIPS peptide ELISA.

The target of the next test is T13, Table 8 peptide No. 14 (human, not fully specified).
T13 peptide: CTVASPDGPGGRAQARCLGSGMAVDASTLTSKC
The test can be described thus: PEPSCAN CLIPS peptide ELISA.

Another test concerns the target T14, Table 8 peptide No. 15 (human, not fully specified).
T14 peptide: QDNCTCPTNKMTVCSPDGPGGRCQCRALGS
The test is described as follows: PEPSCAN CLIPS peptide ELISA.

A further test concerns the target T15, Table 8 peptide No. 16 (human, not fully specified).
T15 peptide: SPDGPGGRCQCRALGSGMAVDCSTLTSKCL
The test can be described thus: PEPSCAN CLIPS peptide ELISA.

In a further test the target is T16, Table 8 peptide No. 17 (human, not fully specified).
T16 peptide: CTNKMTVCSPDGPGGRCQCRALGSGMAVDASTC
The test is described as follows: PEPSCAN CLIPS peptide ELISA.

The next test deals with T17, Table 8 peptide No. 18 (human, not fully specified; cysteine pairing not given here).
T17 peptide: TVCSPDGPGGRCQCR
The test can be described thus: PEPSCAN CLIPS peptide ELISA.

A further test concerns the target T18, Table 8 peptide No. 19 (human, not fully specified).
T18 peptide: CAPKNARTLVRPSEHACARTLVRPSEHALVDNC
The test can be described thus: PEPSCAN CLIPS peptide ELISA.

Another test deals with T19, Table 8 peptide No. 20 (human, not fully specified).
T19 peptide: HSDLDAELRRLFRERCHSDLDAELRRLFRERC
The test can be described thus: PEPSCAN CLIPS peptide ELISA.

Test [3] concerns the target T20, recombinant protein of the extracellular region of hTROP-2 (human).
T20 sequence: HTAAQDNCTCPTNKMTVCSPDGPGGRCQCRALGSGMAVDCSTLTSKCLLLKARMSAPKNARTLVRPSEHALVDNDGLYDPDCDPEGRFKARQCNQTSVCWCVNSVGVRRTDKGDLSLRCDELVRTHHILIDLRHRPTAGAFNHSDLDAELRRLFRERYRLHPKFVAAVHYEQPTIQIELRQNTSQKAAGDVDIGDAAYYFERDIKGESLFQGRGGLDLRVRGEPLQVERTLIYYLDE
The test can be described thus: ELISA of free antibody after equilibration with antigen in solution.

B1: anti-hTROP-2 monoclonal antibody K5-107 (antibody, V domains shown)
VH: QVQLQQPGSELVRPGASVKLSCKASGYTFTSYWMHWVKQRHGQGLEWIGNIYPGGGYTNYDEKFKSKGTLTVDTSSSTAYMHLSSLTSEDSAVYYCTRSSVFDYWGQGTTLTVSS
VL: DILLTQSPAILSVSPGERVSFSCRASQNIGTSIHWFQQRTNGSPRLLIKYASESISGIPSRFSGSGSGTDFTLSINSVESEDIADYYCQQSNSWPFTFGSGTKLEIK
The term Kd denotes the concentration at which binding is half-saturated. Turning to B1, the “mean fluorescence intensity, times that with PE-labeled anti-mouse IgG only” value in the test with human TROP-2 (hTROP-2) [1] worked out at 89 times; with human TROP-2 (hTROP-2) [2], 90 times. Besides, the “binding of K5-107” value with Table 8 peptide No. 1 stood at 2760; with Table 8 peptide No. 2 it was 2760; with Table 8 peptide No. 3 it was 2750; in the test with Table 8 peptide No. 4, 2730; with Table 8 peptide No. 5 it was 2720; in the test with Table 8 peptide No. 6, 2720. The “binding of K5-107” value in the test with Table 8 peptide No. 7 was determined as 2720; in the test with Table 8 peptide No. 8, 2690; with Table 8 peptide No. 9 it was 2660; with Table 8 peptide No. 10, 2660; with Table 8 peptide No. 13 it was 1520; with Table 8 peptide No. 14, 1120. Moreover, the “binding of K5-107” value was 874 with Table 8 peptide No. 15; 561 with Table 8 peptide No. 16; 380 in the test with Table 8 peptide No. 17; 312 with Table 8 peptide No. 18; 284 with Table 8 peptide No. 19; 272 in the test with Table 8 peptide No. 20. In addition, in [3], the Kd was 4.7 pM.
